Positions count from the first letter of the chain named.
Columns and labels:
[1] = tested on: induced psoriatic lesions; experiment: Humanized mouse psoriasis xenograft model (epidermal ridge thickness); format: in vivo; conditions: mean±s.e.m.; BNX mice
Procedure: A mouse xenograft model was employed to evaluate the prophylactic efficacy of clone 68F2 on the development of induced psoriatic lesions. Specifically, BNX mice were transplanted with 5 mm diameter full-thickness skin biopsies from non-involved skin from psoriasis patients (1 per mouse). After 3 weeks, the transplants were injected with 0.5×10^6 activated PBMCs. Treatment of mice with clone 68F2, anti-TNF antibody (Remicade), or betamethasone dipropionate (positive control) was begun 1 day before the activated cells were injected into the transplants.
Treatment efficacy was determined by epidermal ridge thickness, as measured by light microscopy. Significance between groups was analyzed statistically using analysis of variance (ANOVA) followed by post-hoc Least Square Difference (LSD) tests to establish statistical significance differences between treatment groups. A value of p<0.05 denoted a significant difference between groups.

RXF393 cells = experiment: Renal cell cancer mouse xenograft model; format: in vivo
Procedure: The in vivo efficacy of clones 68F2 was investigated in a renal cell cancer mouse xenograft model. […] Briefly, RXF393 cells (2×10^6) were injected subcutaneously at both lateral sides of a nude mouse. Tumors were allowed to grow to a volume between of 50 en 300 mm^3, prior to antibody administration. 90% of the injected mice developed a tumor. 40 mice were split into 5 groups of 8 mice. Each group was received intraperatoneal injection of either PBS (control) or a specific dose of clone 68F2 (1, 3, 10, or 30 mg/kg). Tumor size and survival was monitored twice per week.

cynomolgus monkey IL-6 [2] = target: T1, cynomolgus monkey IL-6 (Macaca fascicularis, UniProt P79341); experiment: Surface plasmon resonance (Biacore), cynomolgus monkey IL-6; format: binding; conditions: purified chain-shuffled Fabs
T1 construct: His
T1 sequence (P79341 28-212): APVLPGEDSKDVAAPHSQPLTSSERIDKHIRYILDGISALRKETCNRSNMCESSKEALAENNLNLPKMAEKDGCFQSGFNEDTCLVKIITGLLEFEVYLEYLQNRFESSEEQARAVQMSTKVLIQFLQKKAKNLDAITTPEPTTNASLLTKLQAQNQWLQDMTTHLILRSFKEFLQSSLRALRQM
Procedure: (§1) VL chain shuffling was used to improve the affinity of the Fabs 17F10, 18C7, 18C9, 18C11, 20A4, 29B11, 16D2 and 28A6. In this method, the heavy chain of these clones (as a VHCH1 fragment) was reintroduced into the primary phagemid-light chain library (see Example 1). Affinity selections were performed to select for chain shuffled Fabs with an improved affinity for IL-6. The binding kinetics of chain shuffled Fabs were evaluated by surface plasmon resonance (Biacore) using both bacterially and eukaryotically produced human IL-6, and cynomolgus monkey IL-6 (Tables 5-7). The VH and VL amino acid sequences of exemplary IL-6-specific Fabs selected by the VL chain shuffling method are set forth in Table 14 below.

IL-6 = experiment: Serum amyloid A (SAA) mouse model, induction by injected IL-6; format: in vivo; parameters: SAA, Mean / SAA, Mouse1 / SAA, Mouse2 / SAA, Mouse3 / SAA, Mouse4 / SAA, Mouse5 / SAA, Mouse6: unit not given here; conditions: for SAA, Mouse1 / SAA, Mouse2 / SAA, Mouse3 / SAA, Mouse4 / SAA, Mouse5 / SAA, Mouse6 / SAA, Mean: 0.1 μg IL-6; for SAA, Mean: mean of 6 mice
Procedure: The in vivo efficacy of clones 68F2 and 61H7 was further investigated by measuring the ability of these antibodies to block serum amyloid A (SAA) induction in response to injected IL-6. General methods for performing this assay are set forth in WO2006/119115A2, which is hereby incorporated by reference in its entirety. […] Four hours after administration of the antibody, the mice were injected with 0.1 ug of IL-6. After a further 16 hours, blood was taken from the mice and the concentration of Serum Amyloid A was determined by ELISA. The dose responses are also graphically depicted in FIG. 13.

human IL-6 = target: T2, human IL-6 (Homo sapiens, UniProt P05231); experiment: IL-6 neutralizing bioassay, B9 cell proliferation ([3H]thymidine); format: cell-based; conditions: B9 cells; relative to 68F2 average IC50
T2 construct: host or cells: IL-6 added from outside to murine 7TD1 hybridoma cells
T2 sequence (P05231 30-212): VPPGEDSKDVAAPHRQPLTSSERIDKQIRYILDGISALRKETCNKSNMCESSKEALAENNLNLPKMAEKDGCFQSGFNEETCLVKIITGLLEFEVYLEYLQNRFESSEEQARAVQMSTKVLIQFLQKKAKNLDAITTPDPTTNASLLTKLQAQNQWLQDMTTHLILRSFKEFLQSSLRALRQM
Procedure: The in vitro efficacy of clones 129D3, 68F2, 61H7, 133A9, 133H2, 133E5 and 132E7 were determined using a cell-based neutralizing bioassay using the B9 cell line, essentially as described in Helle et al. 1988, Eur. J. Immunol 18; 1535-1540. B9 cells are derived from the murine B cell hybridoma cell line B13.29, which require IL-6 for survival and proliferation and respond to very low concentrations of human IL-6. […] B9 cells were seeded in IL-6-free medium at 5000 cells/200 microl in flat-bottom wells in the presence of IL-6, with and without antibodies. Proliferation was measured by a [3H]thymidine pulse at 64-72 h.

[3] = target: T3, bacterially produced human IL-6 (Homo sapiens, UniProt P05231); experiment: Surface plasmon resonance (Biacore), bacterially produced human IL-6 coated on CM5 chip; format: binding
T3 construct: His
T3 sequence (P05231 30-212): as above
Procedure: (§2) The binding kinetics of IL-6-specific Fabs that were able to cross-compete with the B-E8 antibody was assessed using surface plasmon resonance (Biacore). Specifically, biotinylated (prokaryotic) IL-6 was captured on a streptavidin biacore sensor chip (CM5-SA) and different concentrations of purified Fabs were injected during 3 minutes following by a 5 minute wash with buffer. From the washing phase the off-rate (kd) was determined, while from the injection phase the on-rate (ka) was calculated using the concentration and off-rate as parameters. […] The binding kinetics of antagonistic purified Fabs (Table 3) and periplasmic fractions of Fab-expressing bacteria (Table 4) were also evaluated by surface plasmon resonance (Biacore) using both bacterially and eukaryotically produced human IL-6 directly coated on a CM5 chip. The Fabs tested had off-rates between 6×10^−4 and 2×10^−5 s^−1.
as §1
(§3) VH chain shuffling was also used to improve the affinity of the Fab 24D10. In this method, the light chain of 24D10 was reintroduced into the primary phagemid-heavy chain library (see Example 1) and selected using an off-rate assay. In this type of selection, the phage were allowed to bind to antigen on a substrate for 1.5 to 2 hours. At round 2, after 15 washes with PBS-Tween, an additional wash was performed with the presence of excess soluble IL-6. […] This procedure avoids re-binding of such phage to the coated target. […] The binding kinetics of chain shuffled Fabs and the benchmark antibodies, BE8 and GL18, were evaluated by surface plasmon resonance (Biacore) using both bacterially and eukaryotically produced human IL-6 (Tables 8 and 9). The VH and VL amino acid sequences of exemplary IL-6-specific Fabs selected by the VH chain shuffling method are set forth in Table 14 below. […]

[4] = target: T4, eukaryotically produced human IL-6 (Homo sapiens, UniProt P05231); experiment: Surface plasmon resonance (Biacore), eukaryotically produced human IL-6 coated on CM5 chip; format: binding
T4 construct: purchased Humanzyme HZ-1044; host or cells: Human Embryonic kidney cells
T4 sequence (P05231 30-212): as above
Procedure: as §2, §1, §3

cynomolgus monkey IL-6 [5] = target: T1, cynomolgus monkey IL-6; experiment: Surface plasmon resonance (Biacore), cynomolgus monkey IL-6; format: binding; conditions: periplasmic fractions, 24D10 chain-shuffled Fabs
[6] = Bact, purified 24D10 chain-shuffled Fabs
[7] = periplasmic fractions, 24D10 chain-shuffled Fabs
[8] = Euk IL-6, purified 24D10 chain-shuffled Fabs

## CCC(=O)OCC(=O)[C@@]1(OC(=O)CC)[C@@H](C)C[C@H]2[C@@H]3CCC4=CC(=O)C=C[C@]4(C)[C@@]3(F)[C@@H](O)C[C@@]21C [betamethasone, betamethasone dipropionate]
[1]
  epidermal ridge thickness: 83 μm

## Remicade: anti-TNF antibody
[1]
  epidermal ridge thickness: 125 μm

B1: 68F2: anti-IL-6 clone from VL shuffling of 20A4; Fab and human IgG1 formats (antibody, listed as Lama glama, V domains shown)
VH: EVQLQESGPGLVKPSQTLSLTCTVSGGSITTRYYAWSWIRQPPGKGLEWMGVIDYDGDTYYSPSLKSRTSISWDTSKNQFSLQLSSVTPEDTAVYYCARDPDVVTGFHYDYWGQGTQVTVSS
VL: QSALTQPPLVSGTPGQTVTISCAGANNDIGTYAYVSWYQQLPGTAPKLLIYKVTTRASGIPSRFSGSKSGNTASLTISGLQSEDEADYYCASYRNFNNAVFGRGTHLTVLG
RXF393 cells; 1 mg/kg
  median survival time: 21 days
RXF393 cells; 3 mg/kg
  median survival time: 21 days
RXF393 cells; 10 mg/kg
  median survival time: 27.5 days
RXF393 cells; 30 mg/kg
  median survival time: 21 days
RXF393 cells; 1, 3, 10, 30 mg/kg
  tumor outgrowth: effective at inhibiting tumor outgrowth in a dose-dependent manner with saturating effects at 10 mg/kg dose
Cynomolgus monkey IL-6 [2]
  Koff HIS-cyIL-6: 0.00075 s⁻¹
IL-6; Ab dose/mouse 0.31 μg
  SAA, Mouse1: 83
  SAA, Mouse2: 129
  SAA, Mouse3: 116
  SAA, Mouse4: 132
  SAA, Mouse5: 145
  SAA, Mouse6: 136
  SAA, Mean: 123.5
IL-6; Ab dose/mouse 1.25 μg
  SAA, Mouse1: 69
  SAA, Mouse2: 67
  SAA, Mouse3: 81
  SAA, Mouse4: 73
  SAA, Mouse5: 47
  SAA, Mouse6: 83
  SAA, Mean: 70.0
IL-6; Ab dose/mouse 5 μg
  SAA, Mouse1: 76
  SAA, Mouse2: 38
  SAA, Mouse3: 46
  SAA, Mouse4: 63
  SAA, Mouse5: 43
  SAA, Mouse6: 40
  SAA, Mean: 51.0
IL-6; Balb/c mice, i.v., 0.1 ug IL-6
  in vivo efficacy (block of SAA induction): in vivo efficacy at least equal to the high potency benchmark controls GL18 and CNTO136
[1]
  epidermal ridge thickness: 125 μm

B2: 68F2 (12.9) (antibody, V domains shown)
VH: B1 VH
VL: B1 VL
Human IL-6
  Rel. Potency: 0.8

B3: 68F2 (A8.10) (antibody, V domains shown)
VH: B1 VH
VL: B1 VL
Human IL-6
  Rel. Potency: 1.3

B4: 61B7: 24D10 chain-shuffled Fab (antibody, V domains shown)
VH: ELQLVESGGGLVQPGGSLRLSCAASGFTFSSYAMSWVRQAPGKGPEWVSRISSGGGSAYYADSVKGRFTISRDNAKNTLYLQMNSLKPEDTAVYYCANRAGWGMGDYWGQGTQVTVSS
VL: QTVVTQEPSLSVSPGGTVTLTCGLSSGSVTASNYPGWFQQTPGQAPRALIYSTNDRHSGVPSRFSGSISGNKAALTITGAQPEDEADYYCALDIGDITEFGGGTHLTVLG
[3]; [6]
  ka: 350000 M⁻¹ s⁻¹
  kd: 5.7e-05 s⁻¹
[3]; [7]
  Bact (off-rate): 9.07E−05
[4]; [8]
  ka: 330000 M⁻¹ s⁻¹
  kd: 6.6e-05 s⁻¹
[4]; [7]
  RANKED euk (off-rate): 9.79E−05
[4]; periplasmic fractions, average over the IL-6 forms
  Average binding: 597 RU
Cynomolgus monkey IL-6 [5]
  cyno (off-rate): 1.16E−04

B5: 61H7 (A8.11) (antibody, V domains shown)
VH: B4 VH with L2V, A33R, S35Y, A40P, P45L, R50A, S53A, A58T, A61G, L79V
VL: B4 VL
Human IL-6
  Rel. Potency: 0.5

B6: 61H7 (12.8) (antibody, V domains shown)
VH: B4 VH with L2V, A33R, S35Y, A40P, P45L, R50A, S53A, A58T, A61G, L79V
VL: B4 VL
Human IL-6
  Rel. Potency: 0.4

From US11827701B2, “IL-6 binding molecules” (argenx BV, priority 2012, dated 2023)
